Sequences and labels used below:
B2: PD-L2 extracellular domain (ligand, human, UniProt Q9BQ51 20-220, looked up)
chain: LFTVTVPKELYIIEHGSNVTLECNFDTGSHVNLGAITASLQKVENDTSPHRERATLLEEQLPLGKASFHIPQVQVRDEGQYQCIIIYGVAWDYKYLTLKVKASYRKINTHILKVPETDEVELTCQATGYPLAEVSWPNVSVPANTSHSRTPEGLYQVTSVLRLKPPPGRNFSCVFWNTHVRELTLASIDLQSQMEPRTHPT
notes: extracellular domain; ECD construct; also called PDCD1LG2; programmed cell death 1 ligand 2
B3: CEACAM4 expressed on cells (receptor, human, UniProt O75871 36-244, looked up)
chain: FTIEALPSSAAEGKDVLLLACNISETIQAYYWHKGKTAEGSPLIAGYITDIQANIPGAAYSGRETVYPNGSLLFQNITLEDAGSYTLRTINASYDSDQATGQLHVHQNNVPGLPVGAVAGIVTGVLVGVALVAALVCFLLLSRTGRASIQRDLREQPPPASTPGHGPSHRSTFSAPLPSPRTATPIYEELLYSDANIYCQIDHKADVVS
notes: whole, on cells

In assay [1] the target is T1, PD-L1 extracellular domain (human, UniProt Q9NZQ7 19-238).
T1 construct: extracellular domain; ECD construct; also called CD274; programmed cell death 1 ligand 1
The assay is described as follows: SPR, CEACAM4 ECD-Fc immobilized, ECD-Fc analytes at 250 nM. An excerpt: (§1) An irrelevant Fc-tagged protein was used as a control. Sensorgram shown is representative of at least 3 independent runs.
In general terms: In SPR one partner is held on a chip, and binding of the other changes the refractive index at the surface.

The target in assay [2] is T2, PD-1 extracellular domain (human, UniProt Q15116 25-170).
T2 construct: extracellular domain; ECD construct; also called PDCD1; programmed cell death 1
Described as above.
Excerpt: as §1

Assay [3] concerns the target B2. The assay is described as follows: SPR, calculated in equilibrium; PD-L2 immobilized, His-tagged CEACAM4 ECD as analyte (FIG. 10E).
Another assay has as its target T3, EPHA3 expressed on cells (human, UniProt P29320 21-983).
T3 construct: whole, on cells; also called ephrin type-A receptor 3
T3 sequence (looked up): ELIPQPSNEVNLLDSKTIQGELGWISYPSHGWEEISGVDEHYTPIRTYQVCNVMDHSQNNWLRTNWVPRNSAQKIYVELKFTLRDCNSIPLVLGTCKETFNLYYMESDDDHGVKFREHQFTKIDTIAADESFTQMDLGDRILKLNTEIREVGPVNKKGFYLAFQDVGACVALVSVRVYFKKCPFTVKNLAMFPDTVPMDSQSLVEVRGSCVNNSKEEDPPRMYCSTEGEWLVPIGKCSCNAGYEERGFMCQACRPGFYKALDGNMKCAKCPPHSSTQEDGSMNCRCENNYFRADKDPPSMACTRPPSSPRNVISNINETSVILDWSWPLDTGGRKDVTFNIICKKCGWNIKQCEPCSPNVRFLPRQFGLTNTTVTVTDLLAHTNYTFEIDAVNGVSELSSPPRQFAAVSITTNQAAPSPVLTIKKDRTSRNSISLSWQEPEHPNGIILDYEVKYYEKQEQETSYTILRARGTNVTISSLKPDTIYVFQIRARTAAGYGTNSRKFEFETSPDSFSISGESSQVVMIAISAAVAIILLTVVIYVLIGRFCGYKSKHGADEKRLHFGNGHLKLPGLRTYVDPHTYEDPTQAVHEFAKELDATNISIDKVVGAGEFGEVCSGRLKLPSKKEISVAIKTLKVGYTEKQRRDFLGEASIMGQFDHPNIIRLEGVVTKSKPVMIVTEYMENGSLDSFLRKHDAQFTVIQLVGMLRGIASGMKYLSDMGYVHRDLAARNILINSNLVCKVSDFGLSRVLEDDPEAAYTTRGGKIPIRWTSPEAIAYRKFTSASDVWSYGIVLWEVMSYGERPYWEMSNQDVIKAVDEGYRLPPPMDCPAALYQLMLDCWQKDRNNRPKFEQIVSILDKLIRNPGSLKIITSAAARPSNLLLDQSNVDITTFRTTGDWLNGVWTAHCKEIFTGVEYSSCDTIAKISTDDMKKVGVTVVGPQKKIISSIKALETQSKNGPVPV
The assay is described as follows: cell surface interaction assay: PD-L2 ECD tetramer on transfected cells (FIG. 4F).

The target of assay [4] is T4, CEACAM5 expressed on cells (human, UniProt P06731 35-685).
T4 construct: whole, on cells
T4 sequence (looked up): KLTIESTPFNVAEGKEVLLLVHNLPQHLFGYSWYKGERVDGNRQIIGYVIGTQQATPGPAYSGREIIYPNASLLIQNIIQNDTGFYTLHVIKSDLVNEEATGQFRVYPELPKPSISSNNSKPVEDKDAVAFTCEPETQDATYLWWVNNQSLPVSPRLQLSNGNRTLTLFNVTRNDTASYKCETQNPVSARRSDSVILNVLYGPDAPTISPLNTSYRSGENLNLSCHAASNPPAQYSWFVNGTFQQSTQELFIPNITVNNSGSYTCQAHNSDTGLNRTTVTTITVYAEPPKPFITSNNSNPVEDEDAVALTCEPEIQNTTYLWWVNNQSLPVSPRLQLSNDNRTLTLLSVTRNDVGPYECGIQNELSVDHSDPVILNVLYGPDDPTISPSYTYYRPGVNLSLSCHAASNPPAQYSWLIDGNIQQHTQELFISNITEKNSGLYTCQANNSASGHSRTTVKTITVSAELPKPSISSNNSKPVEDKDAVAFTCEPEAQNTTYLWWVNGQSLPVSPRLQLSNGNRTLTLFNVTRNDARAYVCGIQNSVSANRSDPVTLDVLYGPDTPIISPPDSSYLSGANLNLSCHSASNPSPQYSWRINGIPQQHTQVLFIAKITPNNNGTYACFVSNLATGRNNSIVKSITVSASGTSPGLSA
The description is as above.

Assay [5] concerns the target B3. Described as above.
A further assay has as its target T5, PD-L1 expressed on cells (human, UniProt Q9NZQ7 19-290).
T5 construct: whole, on cells; also called CD274
The description is as above.

Assay [6] deals with T6, EPHA3 extracellular domain (human, UniProt P29320 21-541).
T6 construct: extracellular domain; ECD construct; also called ephrin type-A receptor 3
T6 sequence (looked up): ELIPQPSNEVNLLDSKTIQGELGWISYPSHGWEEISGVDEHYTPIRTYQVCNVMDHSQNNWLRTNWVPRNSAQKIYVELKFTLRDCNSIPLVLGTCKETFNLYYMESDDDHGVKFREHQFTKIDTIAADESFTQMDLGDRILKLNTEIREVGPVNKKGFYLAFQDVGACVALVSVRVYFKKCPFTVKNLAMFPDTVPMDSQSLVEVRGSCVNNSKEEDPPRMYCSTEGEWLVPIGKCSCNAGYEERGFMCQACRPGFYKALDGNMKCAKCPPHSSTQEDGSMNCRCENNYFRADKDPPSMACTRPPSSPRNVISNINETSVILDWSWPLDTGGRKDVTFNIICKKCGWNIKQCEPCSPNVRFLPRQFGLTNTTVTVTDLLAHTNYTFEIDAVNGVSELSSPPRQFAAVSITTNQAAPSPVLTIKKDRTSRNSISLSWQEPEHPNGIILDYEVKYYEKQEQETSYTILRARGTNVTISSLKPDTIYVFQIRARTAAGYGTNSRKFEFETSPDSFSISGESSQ
The assay is described as follows: SPR, EPHA3 ECD-Fc immobilized, ECD-Fc analytes at 250 nM.
Excerpt: as §1

Another assay addresses T7, ICAM5 (human, UniProt Q9UMF0).
T7 construct: extracellular domain
T7 sequence (extracellular domain construct of the screen, looked up): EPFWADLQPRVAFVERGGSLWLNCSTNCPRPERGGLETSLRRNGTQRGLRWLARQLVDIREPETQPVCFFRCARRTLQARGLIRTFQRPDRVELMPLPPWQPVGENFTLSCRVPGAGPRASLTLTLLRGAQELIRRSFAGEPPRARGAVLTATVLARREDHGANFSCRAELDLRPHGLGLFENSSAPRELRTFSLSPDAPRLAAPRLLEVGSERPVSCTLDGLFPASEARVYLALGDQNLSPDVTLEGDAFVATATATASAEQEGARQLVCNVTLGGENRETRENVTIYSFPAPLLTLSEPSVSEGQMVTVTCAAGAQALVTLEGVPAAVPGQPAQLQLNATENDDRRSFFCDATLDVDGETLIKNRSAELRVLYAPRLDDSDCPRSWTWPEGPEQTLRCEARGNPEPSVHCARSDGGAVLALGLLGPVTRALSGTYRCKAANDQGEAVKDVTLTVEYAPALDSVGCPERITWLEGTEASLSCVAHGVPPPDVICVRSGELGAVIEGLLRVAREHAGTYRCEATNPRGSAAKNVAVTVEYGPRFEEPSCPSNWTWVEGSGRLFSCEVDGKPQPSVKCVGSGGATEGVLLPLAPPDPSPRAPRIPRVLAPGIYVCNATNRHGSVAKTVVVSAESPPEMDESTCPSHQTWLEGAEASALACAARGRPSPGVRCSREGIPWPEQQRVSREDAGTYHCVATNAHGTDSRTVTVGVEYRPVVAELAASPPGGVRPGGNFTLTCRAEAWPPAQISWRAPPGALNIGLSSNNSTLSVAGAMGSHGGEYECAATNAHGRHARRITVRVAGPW
The assay is described as follows: extracellular interaction screen, normalized intensity; labelled dot against the clone named on the axis; which is query and which prey is not given; colour of the predicted class lost.

Assay [7] has as its target T1, PD-L1 extracellular domain. The assay is described as follows: cell surface interaction assay: PD-L1 ECD tetramer on transfected cells (FIG. 4F).
For the next assay, the target named is T8, mouse CD177 (mouse, UniProt Q8R2S8 22-796, limits assumed).
T8 sequence (looked up): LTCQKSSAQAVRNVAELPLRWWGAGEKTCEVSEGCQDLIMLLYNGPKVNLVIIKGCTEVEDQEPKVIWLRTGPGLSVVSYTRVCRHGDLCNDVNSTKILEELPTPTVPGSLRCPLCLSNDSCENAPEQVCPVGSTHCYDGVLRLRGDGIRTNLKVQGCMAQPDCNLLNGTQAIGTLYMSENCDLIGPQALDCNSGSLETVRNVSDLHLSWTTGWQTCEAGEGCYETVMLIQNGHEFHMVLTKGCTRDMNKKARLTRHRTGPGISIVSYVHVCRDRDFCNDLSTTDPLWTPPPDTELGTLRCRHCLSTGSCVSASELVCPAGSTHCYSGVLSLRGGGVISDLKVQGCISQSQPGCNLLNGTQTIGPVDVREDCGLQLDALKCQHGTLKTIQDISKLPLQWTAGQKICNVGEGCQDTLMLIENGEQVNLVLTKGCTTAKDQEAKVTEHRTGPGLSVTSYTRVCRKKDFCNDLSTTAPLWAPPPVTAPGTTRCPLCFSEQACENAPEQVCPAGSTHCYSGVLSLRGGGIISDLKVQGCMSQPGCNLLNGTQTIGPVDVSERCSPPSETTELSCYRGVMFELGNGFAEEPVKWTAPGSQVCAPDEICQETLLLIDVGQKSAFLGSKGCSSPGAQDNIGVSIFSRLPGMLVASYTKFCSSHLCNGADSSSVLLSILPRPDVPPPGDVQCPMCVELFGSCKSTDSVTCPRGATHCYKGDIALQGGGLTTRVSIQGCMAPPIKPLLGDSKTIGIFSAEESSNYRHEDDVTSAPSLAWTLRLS
The assay is described as follows: SPR.

T1 sequence (Q9NZQ7 19-238): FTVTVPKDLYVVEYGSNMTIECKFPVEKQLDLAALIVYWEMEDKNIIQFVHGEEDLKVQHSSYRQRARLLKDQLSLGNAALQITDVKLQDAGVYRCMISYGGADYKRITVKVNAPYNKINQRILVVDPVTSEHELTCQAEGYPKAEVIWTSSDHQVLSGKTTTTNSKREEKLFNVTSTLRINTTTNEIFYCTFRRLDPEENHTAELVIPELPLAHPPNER
T2 sequence (Q15116 25-170): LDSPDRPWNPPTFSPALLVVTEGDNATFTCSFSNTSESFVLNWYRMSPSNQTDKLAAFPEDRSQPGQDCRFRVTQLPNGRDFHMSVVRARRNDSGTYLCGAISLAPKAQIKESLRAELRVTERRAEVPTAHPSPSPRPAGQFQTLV
T5 sequence (Q9NZQ7 19-290): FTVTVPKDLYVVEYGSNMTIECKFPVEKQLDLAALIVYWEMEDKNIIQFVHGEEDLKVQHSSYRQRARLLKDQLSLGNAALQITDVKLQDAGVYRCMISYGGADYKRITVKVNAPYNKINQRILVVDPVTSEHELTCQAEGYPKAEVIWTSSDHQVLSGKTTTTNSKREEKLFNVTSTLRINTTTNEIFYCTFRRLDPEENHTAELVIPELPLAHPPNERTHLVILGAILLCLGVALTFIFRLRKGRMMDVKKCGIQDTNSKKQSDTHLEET

B1: CEACAM4 extracellular domain (receptor, human, UniProt O75871 36-155, looked up)
chain: FTIEALPSSAAEGKDVLLLACNISETIQAYYWHKGKTAEGSPLIAGYITDIQANIPGAAYSGRETVYPNGSLLFQNITLEDAGSYTLRTINASYDSDQATGQLHVHQNNVPGLPVGAVAG
notes: extracellular domain; ECD construct
Regarding B1, the binding result in assay [1] and in assay [2] was “no binding (tested: 250 nM)” each time. In addition, in [3], the Kd (in general, the free concentration of one partner at which half of the binding sites on the other are occupied at equilibrium, for simple one-to-one binding) was 84 nM.

With B2, the binding result with EPHA3 expressed on cells is given as “no binding”; in assay [4], “no binding”; in assay [5] it was “binds”; in the assay with PD-L1 expressed on cells it was “binds”; in [6] it was “no binding (tested: 250 nM)”; with ICAM5, “binds”.

Take B3: the binding result in [7] is on record as “no binding”.

B4: mouse PDPN (receptor, UniProt Q62011 23-141, looked up)
chain: GTIGVNEDDIVTPGTGDGMVPPGIEDKITTTGATGGLNESTGKAPLVPTQRERGTKPPLEELSTSATSDHDHREHESTTTVKVVTSHSVDKKTSHPNRDNAGDETQTTDKKDGLPVVTL
Turning to B4, the binding result with mouse CD177 is given as “no binding”.

The values above are taken from patent US20220119490A1 (Genentech, published 2022).
